In patent US20140322129A1 (Genentech, published 2014):

T1: irrelevant (Ig-V)-B7-H4 (Ig-C; D158-G236 including TM/CD D237-K282) chimeric membrane protein (Homo sapiens (Human), UniProt Q7Z7D3 158-282)
T1 construct: Transiently expressed on 293 cells; also called construct-88B; B7-H4 Ig-C domain; not shown: irrelevant Ig-V domain
T1 sequence: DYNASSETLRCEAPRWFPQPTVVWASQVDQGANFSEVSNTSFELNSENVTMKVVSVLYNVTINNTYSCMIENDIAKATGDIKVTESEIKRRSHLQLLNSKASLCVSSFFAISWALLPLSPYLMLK

T2: cynomolgus monkey B7-H4 (cynomolgus monkey, UniProt Q7Z7D3 29-282 (human entry))
T2 construct: Expressed on stably transfected 293 cells; also called cyno B7-H4
T2 chain: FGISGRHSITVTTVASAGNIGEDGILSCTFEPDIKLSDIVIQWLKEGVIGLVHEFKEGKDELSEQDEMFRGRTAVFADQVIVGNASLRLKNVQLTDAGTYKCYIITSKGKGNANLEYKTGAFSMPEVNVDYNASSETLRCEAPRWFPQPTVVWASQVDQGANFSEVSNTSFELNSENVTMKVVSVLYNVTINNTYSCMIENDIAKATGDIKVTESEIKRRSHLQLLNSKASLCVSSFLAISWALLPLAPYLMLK

B1: ch22C10 (antibody, human IgG1, V domains shown)
VH: QVQLQQPGAELVKPGTSVKLSCKASGYTFTNFWIHWVIQRPGQGLEWIGEIDPSDSYTNYNQKFKGKATLTVDKSSNTAYMQLSSLTSEDSAVYYCSREITTVDYWGQGTTLTVSS
VL: QIVLTQSPTIMSASPGEKVTLTCSATSSISYMHWYQQKPGTSPKGWIYDTSKLAHGVPARFSGSGSGTSYSLTISSMEAEDAATYYCHQRRSYPFTFGSGTKLEIK
notes: also called chimeric 22C10; ch2210
B2: hu1D11.v1.8 (antibody, V domains shown)
VH: EVQLVQSGAEVKKPGASVKVSCKASGYTFTSYWIGWVRQAPGQGLEWIGDIYPGGGYTNYNEKFKGRATITRDTSTSTAYLELSSLRSEDTAVYYCARLDGSSYRGAMDSWGQGTLVTVSS
VL: DIQMTQSPSSLSASVGDRVTITCKASQGFNKYVAWYQQKPGKAPKLLIYYTSTLQPGVPSRFSGSGSGRDYTLTISSLQPEDFATYYCLQYGNLLYAFGQGTKVEIKR
notes: also called h1D11.v1.8
B3: ch9B9 (antibody, human IgG1, V domains shown)
VH: QVQLQQSGAELMKPGASVKMSCKATGYTFSSYWIEWVKQRPGHGLEWIGEILPGTSITTYNAKFKVKATFTADTSSNTAYMQLSSLTSEDSAVYFCARYYFGSSSFYFDYWGQGTSLTVSS
VL: QAVVTQESALTTSPGDTVTLTCRSSTGAVTTSNYANWVQEKPDHLFTGLIGGTNNRVPGVPARFSGSLIGDKAALTITGAQTEDEAMYFCALWYNNHWVFGGGTKLE
notes: also called chimeric 9B9
B4: ch32D6 (antibody, human IgG1, V domains shown)
VH: EVQLQQSGPDLVKPGASVKISCKASGYSFTGYYIHWMKQSHGKSLEWIGRVNPNNGDPIYNQKFRGKAILTVDQSSNTAYMELRSLTSEASAVYYCARVLFYYGSPFAYWGQGTLVTVSA
VL: DIVMTQSPSSLIVTAGEKVTMSCRSSQSLFDSGSQRNYLTWFHQKPGRPPKLLIYWASTRESGVPDRFTGSGSGTDFTLTISSVQTEDLAVYFCQNDYSFPFTFGSGTKLEEK
notes: also called chimeric 32D6
B5: ch1D11 with light chain C43G (antibody, V domains shown)
VH: QVQLQQSGAELVRPGTSVKMSCKASGYTFTSYWIGWAKQRPGHGFEWIGDIYPGGGYTNYNEKFKGKATLTADKSSSTAYMQFSSLTSEDSAIYYCARLDGSSYRGAMDSWGQGTSITVSS
VL: DIQMTQSPSSLSASLGGKVTITCKASQGFNKYVAWYQHKPGQGPRLLIHYTSTLQPGIPARFSGSGSGRDYSFSISNLEPEDSATYFCLQYGNLLYAFGGGTKLEIKR
notes: Dylight-488 or -650 labelled in the assay; also called slightly modified version of ch1D11

Columns and labels:
[1] = target: T1, irrelevant (Ig-V)-B7-H4 (Ig-C; …); assay: FACS of Dylight-488 or -650 labelled antibody on 293 cells transiently transfected with construct-88B
Source text: To determine whether the B7-H4 antibodies bind to either the Ig-V or Ig-C domain of B7-H4, chimeric Ig domain molecules were engineered that contain either a B7-H4 (IgV; G28-F150 including spacer S151-V157)—irrelevant (Ig-C) (construct-88) or an irrelevant (Ig-V)-B7-H4 (Ig-C; D158-G236 including TM/CD D237-K282) (construct-88B) membrane protein using standard molecular cloning methods. N-terminal or cytoplasmic tags were attached to confirm that 293 cells transfected with these constructs express protein on the cell membrane (data not shown). Briefly, 293 cells were transiently transfected with constructs 88 & 88B using polyfect. After 48 hours, the cells were stained with 10 μg/ml of Dylight-488 or -650 labeled ch9B9, ch1D11, ch22C10 or ch32D6 for 30-40 minutes at 4° C., washed and analyzed on a BD FACS calibur.

cynomolgus monkey B7-H4 = target: T2, cynomolgus monkey B7-H4; assay: FACS titration on 293-cyno B7-H4 cells, geometric mean fluorescence
Method: The small-scale preps were initially screened by FACS and Scatchard Analyses to determine species-specificity and affinity (Kd) to recombinant and endogenous B7-H4. Initial EC₅₀ and species specificity were determined by incubating different concentrations (0-10 μg/ml) of the humanized variants with 293 cells overexpressing recombinant human-, cynomolgus-, or mouse-B7-H4, and the tumor cell line, MX-1, expressing endogenous human B7-H4, at 4° C. for 40 minutes followed by a wash and staining with a secondary goat-anti-human IgG antibody conjugated to Dylight-650 for 20 minutes at 4° C. The fluorescent signal was acquired with a BD FACS Calibur and EC₅₀ values were determined with the Graph Pad program Prism 4.

Row | Binder | binding result [1] | binding result (cynomolgus monkey B7-H4)
1 | B1 | no binding (tested: 10 ug/ml) | 
2 | B2 |  | binds
3 | B3 | no binding (tested: 10 ug/ml) | 
4 | B4 | no binding (tested: 10 ug/ml) | 
5 | B5 | no binding (tested: 10 ug/ml) | 
